Publication PMC5760745, “Nuclear, Cytosolic, and Surface-Localized Poly(A)-Binding Proteins of Plasmodium yoelii”

Assays:
[1] = biological target: T1, PyPABP1 (Plasmodium yoelii 17XNL, UniProt V7PUC0 1-841); test: EMSA; apparent Kd; excess tRNA, 5 mM Mg2+; EMSA/FP: 10 mM Tris-Cl pH 7.5, 5 mM MgCl2, 55 mM KCl, 2 ug tRNA, 1 mM DTT, 0.5 U/ul SUPERase-In, 2.5% glycerol, RT 20 min; ITC: 10 mM HEPES pH 7.5, 100 mM KCl; settings: protein: recombinant; tags: N-terminal GST (thrombin-cleavable), C-terminal 6xHis (TEV-cleavable); single strand
T1 sequence: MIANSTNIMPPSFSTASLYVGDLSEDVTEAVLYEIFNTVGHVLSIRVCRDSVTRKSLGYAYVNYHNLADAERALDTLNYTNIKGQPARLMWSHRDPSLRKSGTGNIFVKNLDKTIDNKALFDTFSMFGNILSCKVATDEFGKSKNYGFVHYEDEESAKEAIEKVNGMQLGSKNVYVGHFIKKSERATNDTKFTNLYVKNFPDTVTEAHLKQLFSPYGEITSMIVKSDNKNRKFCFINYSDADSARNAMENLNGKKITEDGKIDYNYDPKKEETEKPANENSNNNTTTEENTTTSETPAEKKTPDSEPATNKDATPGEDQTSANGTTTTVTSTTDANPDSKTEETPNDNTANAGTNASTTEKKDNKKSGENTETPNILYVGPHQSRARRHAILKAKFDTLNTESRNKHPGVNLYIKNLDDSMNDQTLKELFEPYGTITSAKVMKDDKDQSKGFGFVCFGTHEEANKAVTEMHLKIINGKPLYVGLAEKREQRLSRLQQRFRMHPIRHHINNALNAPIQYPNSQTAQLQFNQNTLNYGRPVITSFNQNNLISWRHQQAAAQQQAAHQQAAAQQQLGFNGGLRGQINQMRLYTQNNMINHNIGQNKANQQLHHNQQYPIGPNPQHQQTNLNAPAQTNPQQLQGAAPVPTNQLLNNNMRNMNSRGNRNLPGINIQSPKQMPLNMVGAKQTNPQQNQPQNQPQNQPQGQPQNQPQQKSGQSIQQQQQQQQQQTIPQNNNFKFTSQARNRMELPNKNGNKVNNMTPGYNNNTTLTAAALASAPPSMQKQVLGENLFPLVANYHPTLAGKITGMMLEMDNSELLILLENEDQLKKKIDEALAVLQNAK

[2] = biological target: T2, PyPABP2 (Plasmodium yoelii, UniProt UPI0004EF7F20 1-199); test: as above; settings: protein: recombinant; tags: N-terminal GST (purified via GST); vector pSL0220 also encodes C-terminal 6xHis; single strand
T2 sequence: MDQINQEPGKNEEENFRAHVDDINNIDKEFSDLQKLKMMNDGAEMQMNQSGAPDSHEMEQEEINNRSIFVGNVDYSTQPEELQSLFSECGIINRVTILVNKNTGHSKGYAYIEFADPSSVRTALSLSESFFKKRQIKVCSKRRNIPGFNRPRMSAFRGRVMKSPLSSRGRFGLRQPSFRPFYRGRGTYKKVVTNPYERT

[3] = biological target: T1, PyPABP1; test: ITC; 5 mM Mg2+; second of two protein preparations; EMSA/FP: 10 mM Tris-Cl pH 7.5, 5 mM MgCl2, 55 mM KCl, 2 ug tRNA, 1 mM DTT, 0.5 U/ul SUPERase-In, 2.5% glycerol, RT 20 min; ITC: 10 mM HEPES pH 7.5, 100 mM KCl; settings: protein: recombinant; tags: N-terminal GST (thrombin-cleavable), C-terminal 6xHis (TEV-cleavable); single strand
[4] = biological target: T1, PyPABP1; test: ITC; 5 mM Mg2+; first of two protein preparations; EMSA/FP: 10 mM Tris-Cl pH 7.5, 5 mM MgCl2, 55 mM KCl, 2 ug tRNA, 1 mM DTT, 0.5 U/ul SUPERase-In, 2.5% glycerol, RT 20 min; ITC: 10 mM HEPES pH 7.5, 100 mM KCl; settings: protein: recombinant; tags: N-terminal GST (thrombin-cleavable), C-terminal 6xHis (TEV-cleavable); single strand
[5] = biological target: T1, PyPABP1; test: fluorescence polarization; apparent Kd; excess tRNA, 5 mM Mg2+; EMSA/FP: 10 mM Tris-Cl pH 7.5, 5 mM MgCl2, 55 mM KCl, 2 ug tRNA, 1 mM DTT, 0.5 U/ul SUPERase-In, 2.5% glycerol, RT 20 min; ITC: 10 mM HEPES pH 7.5, 100 mM KCl; settings: protein: recombinant; tags: N-terminal GST (thrombin-cleavable), C-terminal 6xHis (TEV-cleavable); single strand
[6] = biological target: T2, PyPABP2; test: as above; settings: protein: recombinant; tags: N-terminal GST (purified via GST); vector pSL0220 also encodes C-terminal 6xHis; single strand

Binder: AAAAAAAAAAAAAAAAAAAAAAAAA (ssRNA) [biotin-poly(A) 25-mer]
- Kd [1]: 185 nM
- Kd [2]: 108 nM

Binder: AAAAAAAAAAAAAAAAAAAAAAAAA (ssRNA) [poly(A) 25-mer]
- Kd [3]: 48 nM
- Kd [4]: 33 nM

Binder: AAAAAAAAAAAAAAAAAAAAAAAAA (ssRNA) [fluorescein-poly(A) 25-mer]
- Kd [5]: 8 nM
- Kd [6]: 104 nM
